# Measured values published in patent US20160103133.
# Target: recombinant RhoA (UniProt P61586)
# Sequence (P61586 whole entry): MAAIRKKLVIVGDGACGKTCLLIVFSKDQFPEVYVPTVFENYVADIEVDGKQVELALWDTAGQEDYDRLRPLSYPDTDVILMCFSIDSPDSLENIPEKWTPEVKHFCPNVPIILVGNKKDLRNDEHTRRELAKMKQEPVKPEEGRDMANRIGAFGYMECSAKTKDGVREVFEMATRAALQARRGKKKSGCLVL
substance,measurement,value
T7-tagged TRIO(G2699V),RhoGEF activity (mant-GTP exchange assay),the TRIO(G2699V) mutant was more capable of activating Rho than TRIO(WT)
